Measurements reported in patent US20230074436A1 (DENALI THERAPEUTICS, published 2023).

Columns and labels:
[1] = target: T1, human alpha-synuclein monomer (human, UniProt P37840 1-140); experiment: SPR (Biacore), aSyn monomers
Procedure: (§1) Serial 3-fold dilutions of aSyn were injected at a flow rate of 30 μL/min. Each sample was analyzed using a 3-minute association and a 10-minute dissociation. After each injection, the chip was regenerated using 3 M MgCl₂. Binding response was corrected by subtracting the RU from a flow cell capturing an irrelevant IgG at similar density. A 1:1 Languir model of simultaneous fitting of kₒₙ and koff was used for kinetics analysis.

[2] = target: T1, human alpha-synuclein monomer; experiment: KinExA kinetic exclusion assay
[3] = target: T2, human alpha-synuclein oligomers (human, UniProt P37840 1-140); experiment: KinExA kinetic exclusion assay
[4] = target: T3, human alpha-synuclein pre-formed fibrils (human, UniProt P37840 1-140); experiment: KinExA kinetic exclusion assay
[5] = target: T1, human alpha-synuclein monomer; experiment: SPR (Biacore 8K), IgG captured on anti-human Fc, aSyn monomer injected
Procedure: as §1

[6] = target: T2, human alpha-synuclein oligomers; experiment: SPR; SPR; aSyn oligomers
[7] = target: T1, human alpha-synuclein monomer; experiment: SPR; SPR; aSyn monomers
[8] = target: T3, human alpha-synuclein pre-formed fibrils; experiment: SPR; SPR; aSyn fibrils
[9] = target: T1, human alpha-synuclein monomer; experiment: direct ELISA on coated antigen;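 note: plates coated with recombinant human, mouse or rat alpha-synuclein, purified antibody titrated 10 µg/mL down to 0.6 ng/mL for 1 h, bound antibody detected by anti-rat HRP with TMB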
Procedure: (§2) 96-well Nunc plates were coated with 50 μL of recombinant human, mouse, or rat alpha-synuclein at a concentration of 1 μg/mL in PBS at 4° C. overnight. The plates were then washed three times with PBST and blocked with PBS containing 3% BSA at room temperature for 1 hour. Purified antibody was diluted by serial dilution methods, from 10 μg/mL to 0.6 ng/mL, and 50 μL of the antibody solution was added to the alpha-synuclein-coated wells. The plates were incubated for 1 hour at room temperature, then washed three times with PBST. Secondary detection antibody (goat anti-rat HRP (obtained from Southern Biotech)) was added 50 μL/well, 1:5,000 diluted in BSA-PBS solution. Plates were incubated for 1 hour at room temperature, then washed three times with PBST. Plates were subsequently developed with 50 μL/well of TMB substrate (Thermo Fisher) and quenched with 50 μL/well of 1 N sulfuric acid. The signal was quantified on a BioTek® plate reader at A450.

rat alpha-synuclein [10] = target: T4, rat alpha-synuclein (rat, UniProt P37377 1-140); experiment: direct ELISA on coated antigen;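 note: plates coated with recombinant human, mouse or rat alpha-synuclein, purified antibody titrated 10 µg/mL down to 0.6 ng/mL for 1 h, bound antibody detected by anti-rat HRP with TMB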
Procedure: as §2

[11] = target: alpha-synuclein phosphorylated at serine 129 (human, UniProt P37840 1-140); experiment: SPR (Biacore), antibody captured, p129-Syn injected
Procedure: (§3) Anti-mouse Fc antibody (obtained from GE Healthcare) was immobilized on the surface of a CM5 chip (obtained from GE Healthcare) through amine-coupling to reach about 6,000 to 8,000 response units (RU). The surface was activated by injection of a mixture of 1-ethyl-3-(3-dimethylaminopropyl)-carbodiimide (EDC) and N-hydroxysuccinimide (NETS), both obtained from GE Healthcare, for 7 minutes at room temperature. […] Both injections were done at room temperature.
(§4) Purified rat anti alpha-synuclein antibody (10 μg/mL) was injected at room temperature and captured to reach 1,000 to 2,000 RU. […] Sensorgrams were fitted using a 1:1 Langmuir model to estimate kₒₙ and koff.

mouse alpha-synuclein = mouse alpha-synuclein (mouse, UniProt O55042 1-140); experiment: direct ELISA, plate coated with 1 µg/mL recombinant mouse alpha-synuclein, antibody titrated, anti-rat HRP, A450
Procedure: as §2

[12] = target: T5, alpha-synuclein peptide 1-95 (human); experiment: peptide ELISA
T5 construct: synthetic peptide coated on plate
Procedure: (§5) 96-well Nunc plates were coated with 1 pg/mL of the indicated synthetic peptide in PBS 50 μL/well overnight. The plates were washed three times with PBST, then blocked with 150 μL of 3% BSA in PBS for 1 hour. Purified antibody was diluted by serial dilution methods, from 10 pg/mL to 0.6 ng/ml, and 50 μL of the antibody solution was added to the peptide-coated wells. The plates were incubated for 1 hour at room temperature, then washed three times with PBST. Secondary detection antibody, goat anti-rat HRP (obtained from Southern Biotech) 1:5,000 diluted in BSA-PBS, was added to a concentration of 50 μL/well. Plates were incubated for one hour and washed three times with PBST. Plates were then developed with 50 μL/well of TMB substrate (obtained from Thermo Fisher) and quenched with 50 μL/well of 1 N sulfuric acid. The signal was quantified on a BioTek® plate reader at A450.

[13] = target: T6, alpha-synuclein peptide 1-61 (human); experiment: peptide ELISA
T6 construct: synthetic peptide coated on plate
Procedure: as §5

[14] = target: alpha-synuclein peptide 1-112 (human); experiment: peptide ELISA
Procedure: as §5

[15] = target: T1, human alpha-synuclein monomer; experiment: direct ELISA, plate coated with 1 µg/mL recombinant human alpha-synuclein, antibody titrated, anti-rat HRP, A450
Procedure: as §2

[16] = target: T1, human alpha-synuclein monomer; experiment: ELISA, coated human alpha-synuclein
[17] = target: T2, human alpha-synuclein oligomers; experiment: competition ELISA: oligomers titrated in solution against 0.6 nM antibody, free antibody read on aSyn-coated plate
Procedure: To measure the binding affinities of select antibodies toward oligomeric alpha-synuclein protein, purified antibodies were probed with different concentrations of human alpha-synuclein oligomers in solution, and the levels of unbound antibody were measured by ELISA analysis. In this experiment, 0.6 nM (0.1 pg/mL) of purified antibody was dissolved in phosphate-buffered saline (PBS) solution. […] The mixtures were gently shaken at room temperature for 1 hour to reach equilibrium. After that, these samples were transferred to an alpha-synuclein protein-coated ELISA plate, and antibody not bound to antigen in the previous solution was detected by direct ELISA.

[18] = target: T7, alpha-synuclein peptide 95-140 (human); experiment: ELISA, plate coated with the peptide or protein, antibody titrated, anti-rat HRP, A450
T7 construct: synthetic peptide coated on plate
Procedure: as §5

[19] = target: T8, alpha-synuclein peptide 61-140 (human); experiment: as above
T8 construct: synthetic peptide coated on plate
Procedure: as §5

[20] = target: T1, human alpha-synuclein monomer; experiment: as above
Procedure: as §5

gamma-synuclein protein = target: T9, gamma-synuclein protein (human, UniProt O76070 1-127); experiment: ELISA on coated synuclein, 1 ug/mL
T9 construct: species read from 'recombinant human alpha-synuclein protein, beta-synuclein protein, and gamma-synuclein protein'
Procedure: (§6) Binding to different synuclein species was tested using a method similar to the ELISA format described above. Briefly, recombinant human alpha-synuclein protein, beta-synuclein protein, and gamma-synuclein protein was coated onto 96-well Nunc plates at 1 μg/mL. The plates were washed with PBST and blocked with 150 μL of 3% BSA in PBS. The serial dilutions of purified antibodies were applied onto the plate, and the associated antibody was detected with goat anti-rat HRP secondary antibody.

beta-synuclein protein = target: T10, beta-synuclein protein (human, UniProt Q16143 1-134); experiment: ELISA on coated synuclein, 1 ug/mL
T10 construct: species read from 'recombinant human alpha-synuclein protein, beta-synuclein protein, and gamma-synuclein protein'
Procedure: as §6

rat alpha-synuclein [21] = target: T4, rat alpha-synuclein; experiment: direct ELISA; member tied to this end by the EC50 values of Table 6 (2.0/0.03)
Procedure: as §2

rat alpha-synuclein [22] = target: T4, rat alpha-synuclein; experiment: direct ELISA on coated antigen; upper end tied to 22D11 by Table 6 (2.0 nM rat / 0.03 nM human);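 for Bmax (O.D. at 450 nm): plates coated with recombinant human, mouse or rat alpha-synuclein, purified antibody titrated 10 µg/mL down to 0.6 ng/mL for 1 h, bound antibody detected by anti-rat HRP with TMB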;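 for EC50: plates coated with recombinant human, mouse or rat alpha-synuclein, purified antibody titrated 10 µg/mL down to 0.6 ng/mL for 1 h, bound antibody detected by anti-rat HRP with TMB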
Procedure: as §2

[23] = target: T3, human alpha-synuclein pre-formed fibrils; experiment: competition ELISA: fibrils titrated in solution against 0.6 nM antibody, free antibody read on aSyn-coated plate
Procedure: Purified antibody was probed with different concentrations of alpha-synuclein fibrils in solution, and the levels of unbound antibody were measured by ELISA analysis. In this experiment, 0.6 nM (0.1 μg/mL) of purified antibody was dissolved in phosphate-buffered saline (PBS) solution. […] The mixtures were gently shaken at room temperature for 1 hour to reach equilibrium. After that, these samples were transferred to an alpha-synuclein protein-coated ELISA plate and incubated for 5 minutes. During this short incubation, antibody that was not associated to antigen in the previous solution could instead bind onto the plate, and thus be quantified using a standard ELISA technique. By this means, it was possible to determine the amount of free antibody in the initial mixture with alpha-synuclein fibrils at indicated concentrations.

[24] = target: T1, human alpha-synuclein monomer; experiment: SPR (Biacore), antibody captured, monomer injected, 1:1 fit
Procedure: as §3, §4

[25] = target: T7, alpha-synuclein peptide 95-140; experiment: peptide ELISA, coated fragment
Procedure: as §5

[26] = target: T8, alpha-synuclein peptide 61-140; experiment: peptide ELISA, coated fragment
Procedure: as §5

B1: 20H4_HC5_L1_1 (antibody, V domains shown)
VH: EVQLVESGGGLVQPGGSLRLSCAASGFTFSNAAMYWVRQAPGKGLELLARIRTKPNNYATYHADSVKGRFTISRDDSKNTVYLQMNSLRAEDTAVYYCTADMATGDYWGQGTLVTVSS
VL: DIQMTQSPSSLSASVGDRVTITCKASQNINNNLDWYQQKPGKAPKPLIYSTNNLKTGVPSRFSGSGSGTDFTLTISSLQPEDFATYYCYQYKSAWTFGQGTKVEIK
notes: also called 20H4_H5_L1_1; hu20H4
Question: With B1 as the binder, how does the Kd [1] read?
Answer: Its Kd is 0.21 nM.

Question: What about the Kd [2] of the same binder?
Answer: The Kd was 0.0157 nM.

Question: And the Kd [3]?
Answer: The Kd was 8.86 pM.

Question: What about the Kd [4] of the same binder?
Answer: The Kd was 0.638 pM.

Question: What about the Kd [5] of the same binder?
Answer: The Kd was 0.1 nM.

Question: And the Kd [6]?
Answer: Its Kd is 0.19 nM.

Question: What about the Kd [7] of the same binder?
Answer: The Kd was 0.12 nM.

Question: What about the Kd [8] of the same binder?
Answer: The Kd was 0.27 nM.

B2: 22D11 (antibody, rat IgG1, V domains shown)
VH: AVQFVESGGGLVRPKESLKISCTASGFTFTNAAIYWVRQAPGKGLECIARIRTKPNNYATYYADSVRGRFTISRDDSKPMVYLQMNELKTEDTAMYYCAADASRGDYWGQGVMVTVSS
VL: DIQMTQSPSVLSASVGDRVTFSCKASQNINKNLDWYQQKLGEVPKVLIYFTNNLQTGIPSRFSGSGSGTDYTLTISSLQPEDVATYYCYQYTSGFTFGAGTKLELK
notes: also called clone 22D11
Question: Which “Bmax (O.D. at 450 nm)” value [9] does the source give for B2 here?
Answer: Its value is 1.2 OD.

Question: What about the EC50 [9] of the same binder?
Answer: Its EC50 is 0.03 nM.

Question: What about the “Bmax (O.D. at 450 nm)” value (rat alpha-synuclein [10]) of the same binder?
Answer: The value was 0.05 OD.

Question: And the EC50 (rat alpha-synuclein [10])?
Answer: Its EC50 is 2 nM.

Question: What about the Kd [11] of the same binder?
Answer: Its Kd is 42.9 nM.

Question: What about the koff [11] of the same binder?
Answer: Its koff is 0.0035 s⁻¹.

Question: What about the kon [11] of the same binder?
Answer: Its kon is 81600 M⁻¹ s⁻¹.

Question: Does B2 bind (mouse alpha-synuclein)?
Answer: Result: no binding (tested: 10 µg/ml (log 1))

Question: What about the “antibody concentration at which ELISA is positive” value (shortened to “antibody concentration”) [12] of the same binder?
Answer: The value was greater than 2600 ng/mL.

Question: What about the “antibody concentration” value [13] of the same binder?
Answer: Its value is greater than 2600 ng/mL.

Question: And the “antibody concentration” value [14]?
Answer: Its value is greater than 2600 ng/mL.

Question: What about the “EC50 (read off the curve)” value [15] of the same binder?
Answer: Its value is roughly 0.04 µg/mL.

Question: And the “antibody concentration” value [16]?
Answer: The value was less than 40 ng/mL.

Question: What about the IC50 [17] of the same binder?
Answer: Its IC50 is 15.2 nM.

Question: And the “EC50 (read off the curve)” value [18]?
Answer: The value was roughly 0.04 µg/mL.

Question: What about the “EC50 (read off the curve)” value [19] of the same binder?
Answer: Its value is roughly 0.03 µg/mL.

Question: What about the “EC50 (read off the curve)” value [20] of the same binder?
Answer: The value was roughly 0.04 µg/mL.

Question: Does B2 bind (gamma-synuclein protein)?
Answer: Result: no binding

Question: Does B2 bind (beta-synuclein protein)?
Answer: Result: no binding

Question: What about the “fold higher EC50 for rat than for human alpha-synuclein” value (rat alpha-synuclein [21]) of the same binder?
Answer: Its value is 66.7 fold.

Question: What about the “fold higher EC50 for rat alpha-synuclein compared to human alpha-synuclein” value (rat alpha-synuclein [22]) of the same binder?
Answer: Its value is 66.7 fold.

Question: What about the IC50 [23] of the same binder?
Answer: Its IC50 is 4.53 nM.

Question: And the Kd [24]?
Answer: The Kd was 18.1 nM.

Question: And the koff [24]?
Answer: Its koff is 0.00337 s⁻¹.

Question: And the kon [24]?
Answer: The kon was 186000 M⁻¹ s⁻¹.

Question: What about the “antibody concentration” value [25] of the same binder?
Answer: Its value is less than 40 ng/mL.

Question: What about the “antibody concentration” value [26] of the same binder?
Answer: Its value is less than 40 ng/mL.
